Experimental data from US10005846B2, “Anti-transglutaminase 2 antibodies” (MEDICAL RESEARCH COUNCIL TECHNOLOGY, priority 2012, dated 2018).

What was measured:
human TG2 = molecular target: T1, human TG2 (Homo sapiens, UniProt P21980); test: 3H-putrescine incorporation TG activity assay with recombinant human TG2; assay type: biochemical
T1 sequence (P21980 1-687): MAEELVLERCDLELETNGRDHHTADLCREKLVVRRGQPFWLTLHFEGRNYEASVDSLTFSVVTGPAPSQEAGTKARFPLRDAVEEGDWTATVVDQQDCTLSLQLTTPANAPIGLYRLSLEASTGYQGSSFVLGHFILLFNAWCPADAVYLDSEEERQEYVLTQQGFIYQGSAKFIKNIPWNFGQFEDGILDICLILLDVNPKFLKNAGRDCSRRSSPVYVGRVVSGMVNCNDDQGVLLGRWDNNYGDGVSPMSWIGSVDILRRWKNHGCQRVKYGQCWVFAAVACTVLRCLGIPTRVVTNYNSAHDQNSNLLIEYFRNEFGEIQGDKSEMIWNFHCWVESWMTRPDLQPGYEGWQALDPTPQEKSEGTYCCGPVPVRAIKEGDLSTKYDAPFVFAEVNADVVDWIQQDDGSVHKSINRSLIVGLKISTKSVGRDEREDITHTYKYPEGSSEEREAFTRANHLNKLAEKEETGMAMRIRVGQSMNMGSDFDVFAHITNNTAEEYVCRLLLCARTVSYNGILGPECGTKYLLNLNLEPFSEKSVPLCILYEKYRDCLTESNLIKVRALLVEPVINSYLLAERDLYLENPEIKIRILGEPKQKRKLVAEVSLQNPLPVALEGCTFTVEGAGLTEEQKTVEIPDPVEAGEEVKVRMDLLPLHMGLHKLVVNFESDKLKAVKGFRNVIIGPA
Procedure: To determine an IC50 value for each antibody against human, rat and mouse the ^3H Putrescine assay was used. 100 ng of human TG2 or 25 ng of mouse and rat TG2 was used to generate a reaction where approximately 3000 cpm of Putrescine were incorporated per hour in 10 ul of the reaction mixture. Serial dilutions of each antibody were then applied starting from adding 500 ng (5 ug/ml final concentration) to the reaction mixture and incubated with the TG2 for 20 minutes prior to activating the reaction. IC50 values were calculated by determining the concentration at which the enzymatic rate of reaction was reduced by 50% using an appropriate curve fit in graphpad prism. Values are expressed as the amount of IgG in […] in the reaction that would inhibit 1 ng of TG2.
TG activity is measured by the Ca^2+ dependent incorporation of ^3H-putrescine into N′,N′-dimethylcasein. Recombinant human TG2 (100 ng) was pre-incubated for twenty minutes at room temperature with the test sample (conditioned medium or purified IgG) before starting the reaction. Twenty-five μl of reaction mix (5 μl of 25 mM CaCl2, 5 μl of 40 mM dithiothreitol, 5 μl ^3H-putrescine mix, and 10 μl 25 mg/ml of N,N′ dimethylcasein (replace 25 mM CaCl2 with 100 mM EDTA for a non-enzymatic control) was added to start the reaction and the samples incubated at 37° C. for up to 1 hour. Aliquots of 10 μl were spotted onto a strip of 3 MM Whatman filter paper and plunged immediately into ice-cold 10% trichloroacetic acid (TCA) in order to precipitate the cross-linked proteins typically at time 0, 10, 30 and 60 minutes into the reaction. After three extensive washes in ice-cold 5% TCA followed by 3 rinses with ice-cold 95% ethanol, the air dried filter was counted in 2 ml of scintillation fluid (Ultima Gold Packard, Perkin Elmer). The rate of reaction was calculated. 1 TG unit is equivalent to the incorporation of 1 nmol of putrescine per hour at 37° C.

[1] = molecular target: T2, TG2 activity in HepG2 cell homogenate (Homo sapiens, UniProt P21980); test: 3H putrescine incorporation TG activity assay in HepG2 cell homogenate; assay type: biochemical
T2 construct: endogenous in cells; host or cells: HepG2
T2 sequence (P21980 1-687): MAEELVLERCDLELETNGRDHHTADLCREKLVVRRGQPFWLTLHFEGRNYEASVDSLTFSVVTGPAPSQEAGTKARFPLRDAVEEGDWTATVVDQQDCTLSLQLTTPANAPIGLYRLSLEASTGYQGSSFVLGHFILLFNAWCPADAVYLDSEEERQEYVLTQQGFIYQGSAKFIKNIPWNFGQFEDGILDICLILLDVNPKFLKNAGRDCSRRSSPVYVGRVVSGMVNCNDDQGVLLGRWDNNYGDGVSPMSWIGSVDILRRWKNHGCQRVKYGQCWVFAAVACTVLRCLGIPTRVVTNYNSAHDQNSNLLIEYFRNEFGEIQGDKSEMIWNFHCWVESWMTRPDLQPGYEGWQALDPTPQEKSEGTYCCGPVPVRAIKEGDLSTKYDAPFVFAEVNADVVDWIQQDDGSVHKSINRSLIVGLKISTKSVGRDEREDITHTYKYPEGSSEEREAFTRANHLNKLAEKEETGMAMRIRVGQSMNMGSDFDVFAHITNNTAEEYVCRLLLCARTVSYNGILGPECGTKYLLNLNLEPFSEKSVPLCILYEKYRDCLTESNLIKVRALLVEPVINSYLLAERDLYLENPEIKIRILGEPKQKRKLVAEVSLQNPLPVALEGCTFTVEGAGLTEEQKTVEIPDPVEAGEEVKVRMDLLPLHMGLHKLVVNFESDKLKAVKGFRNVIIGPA
Procedure: A: Hep2G cells were lysed and 45 ug of protein mixed with 750 ng of IgG from AB1, DH2, DD9, BB7, DC1 and EH6 for 20 minutes. This was subsequently assayed using the ^3H Putrescine incorporation TG activity assay with sampling over 1 hour. The rate of reaction was calculated and expressed as a percentage of the same lysate incubated with a random antibody (MAB002). Data represents the mean percentage inhibition ±SEM from 2 separate experiments done in duplicate. *p<0.05
HepG2 cells were kindly supplied by Richard Ross (University of Sheffield). Cells were routinely grown at 37° C. in a 95% humidified atmosphere of 5% CO2 in DMEM/4.5 g per liter glucose supplemented with 10% foetal calf serum (FCS), 100 IU penicillin and 100 μg/ml streptomycin, 2 mM I-glutamine (all GIBCO). Two million cells were seeded on a 10 cm dishes and grown for 48 hours. Cells were lysed in 250 μl of STE buffer (0.32M sucrose, 5 mM Tris, 1 mM EDTA containing protease inhibitors Phenylmethylsulphonyl fluoride (1 mM), benzamidine (5 mM), and leupeptin (10 μg/ml) and sonicated on ice to produce a cell lysate usable in TG2 activity assay.
The same protocol was used to assess TG inhibition in cell lysates by replacing the 25 μl of recombinant protein with 25 μl of cell lysate.

[2] = molecular target: T3, extracellular TG2 in human HK-2 cells (Homo sapiens, UniProt P21980); test: Extracellular TG activity in HK-2 cells, biotin cadaverine incorporation into fibronectin (Example 1); assay type: cell-based
T3 construct: endogenous in cells; host or cells: HK-2 (kidney proximal tubular epithelium)
T3 sequence (P21980 1-687): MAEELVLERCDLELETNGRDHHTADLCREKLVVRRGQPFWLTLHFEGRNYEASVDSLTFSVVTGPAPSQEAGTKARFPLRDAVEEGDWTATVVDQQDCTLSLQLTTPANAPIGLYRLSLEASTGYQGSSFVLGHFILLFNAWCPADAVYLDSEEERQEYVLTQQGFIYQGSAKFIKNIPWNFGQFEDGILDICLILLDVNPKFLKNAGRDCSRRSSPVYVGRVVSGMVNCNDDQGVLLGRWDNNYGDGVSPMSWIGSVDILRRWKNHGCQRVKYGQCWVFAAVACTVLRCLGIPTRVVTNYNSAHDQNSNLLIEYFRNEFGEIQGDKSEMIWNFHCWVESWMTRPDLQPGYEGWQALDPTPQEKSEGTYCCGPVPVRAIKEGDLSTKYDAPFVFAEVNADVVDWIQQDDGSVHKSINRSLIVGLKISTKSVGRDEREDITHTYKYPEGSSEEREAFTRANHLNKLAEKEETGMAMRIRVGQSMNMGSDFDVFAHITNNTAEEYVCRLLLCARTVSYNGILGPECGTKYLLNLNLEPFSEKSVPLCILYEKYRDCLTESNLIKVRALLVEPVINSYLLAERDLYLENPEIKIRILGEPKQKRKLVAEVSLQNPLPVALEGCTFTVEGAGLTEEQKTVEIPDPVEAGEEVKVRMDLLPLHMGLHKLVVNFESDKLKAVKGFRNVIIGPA
Procedure: HK2 cells were plated onto fibronectin and incubated for 2 hours in the presence of 0.1M biotin cadaverine with either 4 ng/μl of human anti-TG2 antibody (AB1) (part A), 4 ng/μl of human anti-TG2 antibody (DC1) (part B) or 400 μM of the site-specific pan TG inhibitor 1,3-Dimethyl-2-[(2-oxo-propyl)thio]imidazolium chloride. […] Changes in optical density were measured at 450 nm in a 96 well plate reader. Data represents mean OD at 450 nm corrected to 1 mg of cell protein. n=6 wells per experimental group.
Extracellular TG activity was measured by modified cell ELISA. HK-2 epithelial cells were harvested using 0.1M EDTA or 0.25% trypsin/EDTA and plated at a density of 8×10^4 cells/well in serum free medium onto a 96 well plate that had been coated overnight with 100 μl/well of fibronectin (5 μg/ml in 50 mM Tris-HCl pH 7.4) (Sigma, Poole UK). Cells were allowed to attach for 2.5 h at 37° C. in the presence of the 0.1 mM biotin cadaverine [N-(5 amino pentyl biotinamide) trifluoroacetic acid] (Molecular Probes, Eugene Oreg., USA). Plates were washed twice with 3 mM EDTA/PBS and cells removed with 0.1% (w/v) deoxycholate in 5 mM EDTA/PBS. The supernatant was collected and used for protein determination. […] The reaction was stopped with 50 μl 2.5 M H2SO4 and the absorbance read at 450 nm.

[3] = molecular target: T4, HepG2 cell lysate proteins (Homo sapiens, UniProt P21980); test: Western blot of HepG2 lysate immunoprobed with AB1; assay type: binding; conditions: 25 μg of lysate
T4 construct: endogenous in cells; host or cells: HepG2
T4 sequence (P21980 1-687): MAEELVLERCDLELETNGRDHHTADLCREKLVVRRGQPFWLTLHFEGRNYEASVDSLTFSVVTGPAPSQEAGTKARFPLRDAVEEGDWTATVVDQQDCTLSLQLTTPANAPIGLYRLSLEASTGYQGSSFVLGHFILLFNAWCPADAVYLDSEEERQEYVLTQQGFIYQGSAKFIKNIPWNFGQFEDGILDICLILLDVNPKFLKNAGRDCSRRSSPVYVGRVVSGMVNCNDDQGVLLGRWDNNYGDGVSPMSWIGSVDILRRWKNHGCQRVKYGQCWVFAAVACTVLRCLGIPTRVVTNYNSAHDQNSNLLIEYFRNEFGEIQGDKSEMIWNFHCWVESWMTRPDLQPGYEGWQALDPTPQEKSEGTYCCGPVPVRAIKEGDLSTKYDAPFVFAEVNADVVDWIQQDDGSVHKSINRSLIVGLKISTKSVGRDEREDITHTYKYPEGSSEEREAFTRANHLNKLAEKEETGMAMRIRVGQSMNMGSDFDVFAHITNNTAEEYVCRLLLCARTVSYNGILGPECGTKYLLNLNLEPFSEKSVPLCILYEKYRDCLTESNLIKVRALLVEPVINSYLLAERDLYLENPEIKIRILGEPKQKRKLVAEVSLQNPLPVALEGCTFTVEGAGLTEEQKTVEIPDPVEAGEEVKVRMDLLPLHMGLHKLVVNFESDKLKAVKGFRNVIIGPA
Procedure: B: HepG2 cells were exposed to increasing glucose concentrations for 96 hours to up regulate TG2 expression. Cells were harvested, lysed and 25 ug of lysate fractionated by SDS-PAGE, western blotted and then immunoprobed with a 1 ng/ml solution of AB1 IgG using a chemiluminesant end point.
Confirmation of TG2 core protein synthesis as well as TG2 and TG2 core reactivity levels following immunisation were all measured by western blotting. Recombinant proteins (10 to 80 ng) were loaded on a 10% (w/v) polyacrylamide denaturing or non-denaturing gel as required and transferred onto PVDF membranes (Transblot SD, Biorad, UK) for one hour at 100 V. Membranes were blocked overnight at 4° C. with 3% (w/v) BSA in TBS/0.1% (v/v) Tween 20. The membranes were then washed and probed with monoclonal mouse anti-transglutaminase antibodies in TBS/Tween containing 1% BSA. For proof of recombinant TG2 core protein and as a positive control for antibody screening the commercial antibody Cub7402 (neomarkers) was used at a 1:1000 dilution. Binding of primary antibody was detected with the anti-mouse gamma-chain-HRP linked secondary antibody (Sigma, Poole, UK). Bands were visualised using ECL chemiluminescent detection system (Amersham, UK).

B1: AB1: murine monoclonal anti-TG2 IgG, Group 1 (epitope amino acids 304 to 326); VH and VK in FIGS. 7 and 18 (antibody, V domains shown)
VH: EVQLVESGGGLVKPGGSLKLSCAASGFTLSSSAMSWVRQTPDRRLEWVATISVGGGKTYYPDSVKGRFTISRDNAKNTLYLQMNSLRSEDTAMYYCAKLISLYWGQGTTLTVSS
VL: DIKMTQSPSSMYASLGERVTITCKASQDINSYLTWFQQKPGKSPKTLIYRTNRLFDGVPSRFSGSGSGQDFFLTISSLEYEDMGIYYCLQYDDFPYTFGGGTKLEIK
Human TG2; amount of IgG in the reaction that would inhibit 1 ng of TG2, 100 ng human TG2
  IC50 against human TG2: 0.011 µg/mL
Human TG2; initial screen of conditioned medium, 100 ng of TG2
  hybridoma supernatant ability to inhibit TG2 activity: able to inhibit TG2 activity
[1]
  inhibition of TG2 in human Hep2G cells (in words): able to inhibit TG2 successfully
[1]; 0.5 μg of antibody, 45 ug lysate protein
  inhibition of TG2 activity in HepG2 homogenate: 70%
[2]; 4 ng/ul in the culture media
  inhibition of extracellular TG activity: 60%
[2]; applied to the culture media
  inhibition of extracellular TG2 in human HK-2 cells (in words): able to inhibit TG2 successfully
[3]
  off target association in HepG2 lysate: no off target association
